From patent US20260217846A1 (University of Texas, published 2026)

B1: Clone 49A 4-1BB antibody (IgG1) (antibody, V domains shown)
VH: VKLQQSGPELVKPGASVKISCKASGYTFTDYYMNWVKESHGKSLEWIGDINPNNGGSTYYNQKFKGKATLTVEKSSSTAFMELRSLTSEDSAVYYCARSLYGSTYYFDYWGQGTPLTVSS
VL: DIVLTQSPASLAVSLGQRATISCKASQSVDYDGDSYMNWYQQKPGQPPKLLIYAASNLESGIPARFSGSGSGTDFTLNIHPVEEEDAGTYYCQQSNDDPWTFGGGTKLEIK
notes: Mouse hybridoma antibody, IgG1
B2: Clone 138 4-1BB antibody (IgG2b) (antibody, V domains shown)
VH: VQLQESGGGLVKPGGSLKLSCAASGFTFSDYGMHWVRQAPEKGLEWVAYISSGSNSIYYADTVTGRFTISRDNAKNTLFLQMTSLRSEDTAMYYCASNNGYFYFDYWGQGTTLTVSS
VL: IVITQSPAILSASPGEKVTMTCRASSSVSYMHWYQQKPGSSPKPWIYATSNLASGVPARFSGSGSGTSYSLTVSRVEAEDAATYYCQQWSSDPFTFGSGTKLEIK
notes: Mouse hybridoma antibody, IgG2b
B3: Clone 54 4-1BB antibody (IgG2a) (antibody, V domains shown)
VH: EFQLQQSGPELVKPGASVKISCKASGYSFTDYNMNWVKQSNGKSLEWIGVINPNYGTTSYNQKFKGKATFTVDQSSSTAYMQLNSLTSEDSAVYYCARSPVEDYFDYWGQGTTLTVSS
VL: ENVLTQSPAIMSASPGEKVTMTCRARSSVSSSYLHWYQQKSGASPKLWIYSTSNLASGVPARFSGSGSGTSYSLTISSVEAEDAATYYCQQYSGYPLITFGAGTKLELKR
notes: Mouse hybridoma antibody, IgG2a; also called Curranlumab; hybridoma clone 271-54 41-BB

Biological target: T1, recombinant human 4-1BB (human, UniProt Q07011 24-186, limits assumed)
T1 construct: The ELISA antigen is called only 'recombinant human 4-1BB'; also called CD137; TNFSFR
Assay: ELISA titration on recombinant human 4-1BB

Binding result, binds:
B1
B2
B3
